Tested on: HEK293 cells
Assay type: cell-based, human
Conditions: circular RNA encoding Gluc with the listed IRES (UTR truncated to 675 nt) transfected into HEK293 cells; supernatant after 24 hours

B1: Rodent pegivirus (nucleic acid, listed as Pegivirus sp.)
DNA: GGACTTCGGTCCCCCTGTTACTCTGCGAGCCACCGCAGAGCCAGGGTTGGTACGCCCGAGGTGTTAGACCCCGGCCGAAAGCTCCTAACCATGGGGTTAGTAGGACGTGGTAAATGCCACTGAGGGGTTGGAGAGCTGGTAGAGCGAGTAAGTCGGCGTAAGGCCCGAGTACGGGCCTCCCAGCCCGGGTCAGCCTAAACCTGGCTGTGATACCCGGTGCATGGAGGGCGTGTCCCAACGCTCGATCGCTGTAGGGTGGGTCCCTGCAGTTGGGTGTGGCTACCCTGCTCGTACTGCTTGATAGAGTCCCGGCGGACGGACCAGCTCTCGTCAGTCCGTGGAGTTGCAC
modifications: lipid formulation
Expression (luminescence from secreted Gluc protein): 1.79E+05

B2: Pegivirus K (nucleic acid)
DNA: AGAATGGTGTGATCCGTCGCCGCTCCAGCGGAAAGCGGGCGGGATCTAGTGGTTAGGGTTGTTCGCGTAAATCCCACACTAGTGGTACGCTCGTATAACGTGGGAGCAGCCGGTGGGGTCGACCCCCCACCTGGCGGCTGCTGAGCACCGGACGAAGCGCGGGGGGTGAACGCTAACCCGCGGCCCGGGCTGCCAACGTTAGGCACGTCTTGGCTGGAAGACGTTAAACACAGGGCCCCCCCTCAACCCTGATCCGAGGCCAGAGACCAAGGTACGCCGCCCTTTTAAAGGCGTTACTCGTCCAATAGGATCTCTCCGGCGGGTTGTCAAACCTTGCTGGCCCTGGTGATGGTTACGGGAGGGGGTGGGGCGGGGAGTAGAAGCCCCGCCCGGCATGGGGGTACCAAGCTCGGCACGCCCAGCACGCGTGGCGTAGGGGAAAAATCCTTCGGGTGACCCCTGGTACCATAAAGTAATTAACATGAGCATGCCGCTAGGGTGTGCTTTTTCTTCCTTCCTTGGGAAGGCGGTGGCACC
modifications: lipid formulation; Pegivirus K
Expression (luminescence from secreted Gluc protein): 8.07E+04

B3: Theiler's disease-associated virus (nucleic acid)
DNA: TGATACCGTGTCCCGGTACGACCTCGCGCGTCCCCAAGCTCGCCCTGAGGGGGGAGCGTAAGGGCGCGTAGTGGGGTAGCCCCCCAAACCGAGCCACCCTAGTGAGTGACTTTAGAATGGTTAGGGAGACTACCGCCTTCGCTGTTTGGGGACCTAATGATCCGCGTGCCAGGGTTCTTCGGGTAAATCCCGGCGCGGTGTTTTGGGTTCAGGGCAGTAGGGGCAGACGGGCCAGCAGTCGCTGGTTCCTGGTACCACCACCCTATCCGGACGACCTCCCTCACGAAAGGTCGCCACGGTCTGTGGCTCGACGACGCCTATAATTCAGTCCGAGGGGCGCAGCCCTCGTTAAACTTAGGCAAGGTTCCTCGCCATTGATTTGGCCAGGGGTTTAAGTGAACGCCGCCCTTTTAATGTTTAATAGGGTTCTTTCCCGGCGGGTTGACAAACACTTCCCTGGGCTCTTCGTTGGCCTCGGTTCCTTGATGCTTCGGCACCCATGAGCGCACAGGGGGGGGACCCTGCGACAGTCCGCCAAGAGGAAAATCCTTCGGGTGACCTCGTGCGCAACCCAATCCCTTCTTCTTCCACATGGCGTGTCTGTGGTGCATGCTGTG
modifications: lipid formulation; source: /note="Description of Unknown: Theiler's disease-associated virus sequence"
Expression (luminescence from secreted Gluc protein): 7.84E+04
